The values below come from paper PMC2993495 (Molecular cell, 2009).

Residue numbers refer to the chain shown, from its start. Several values for one entry are separate records, joined by “and”; a condition that tells them apart may be missing. Equal values may be shown once.

Experiment [1] addresses His6-tagged wild-type Mms21 (budding yeast (S. cerevisiae)) (UniProt P38632). The experiment can be described thus: ITC. In general terms: ITC needs no label: the signal is the heat of the interaction.
For experiment [2], the target named is Mms21-M1, His6-tagged (budding yeast (S. cerevisiae)) (UniProt P38632). The experiment can be described thus: pull-down.
For experiment [3], the target named is T1, Mms21, full length (crystallised complex) (budding yeast (S. cerevisiae), UniProt P38632 1-267).
T1 sequence (looked up): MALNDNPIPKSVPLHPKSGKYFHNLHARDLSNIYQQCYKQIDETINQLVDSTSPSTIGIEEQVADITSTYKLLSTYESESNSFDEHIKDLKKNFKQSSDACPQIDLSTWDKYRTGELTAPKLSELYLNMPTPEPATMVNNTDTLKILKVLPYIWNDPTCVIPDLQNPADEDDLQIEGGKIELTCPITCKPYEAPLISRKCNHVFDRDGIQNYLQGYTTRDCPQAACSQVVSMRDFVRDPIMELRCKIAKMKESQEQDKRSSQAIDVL
Description: crystal structure.

The target of experiment [4] is T2, Smc5-TAF (budding yeast (S. cerevisiae), UniProt Q08204 1-1093).
T2 sequence (looked up): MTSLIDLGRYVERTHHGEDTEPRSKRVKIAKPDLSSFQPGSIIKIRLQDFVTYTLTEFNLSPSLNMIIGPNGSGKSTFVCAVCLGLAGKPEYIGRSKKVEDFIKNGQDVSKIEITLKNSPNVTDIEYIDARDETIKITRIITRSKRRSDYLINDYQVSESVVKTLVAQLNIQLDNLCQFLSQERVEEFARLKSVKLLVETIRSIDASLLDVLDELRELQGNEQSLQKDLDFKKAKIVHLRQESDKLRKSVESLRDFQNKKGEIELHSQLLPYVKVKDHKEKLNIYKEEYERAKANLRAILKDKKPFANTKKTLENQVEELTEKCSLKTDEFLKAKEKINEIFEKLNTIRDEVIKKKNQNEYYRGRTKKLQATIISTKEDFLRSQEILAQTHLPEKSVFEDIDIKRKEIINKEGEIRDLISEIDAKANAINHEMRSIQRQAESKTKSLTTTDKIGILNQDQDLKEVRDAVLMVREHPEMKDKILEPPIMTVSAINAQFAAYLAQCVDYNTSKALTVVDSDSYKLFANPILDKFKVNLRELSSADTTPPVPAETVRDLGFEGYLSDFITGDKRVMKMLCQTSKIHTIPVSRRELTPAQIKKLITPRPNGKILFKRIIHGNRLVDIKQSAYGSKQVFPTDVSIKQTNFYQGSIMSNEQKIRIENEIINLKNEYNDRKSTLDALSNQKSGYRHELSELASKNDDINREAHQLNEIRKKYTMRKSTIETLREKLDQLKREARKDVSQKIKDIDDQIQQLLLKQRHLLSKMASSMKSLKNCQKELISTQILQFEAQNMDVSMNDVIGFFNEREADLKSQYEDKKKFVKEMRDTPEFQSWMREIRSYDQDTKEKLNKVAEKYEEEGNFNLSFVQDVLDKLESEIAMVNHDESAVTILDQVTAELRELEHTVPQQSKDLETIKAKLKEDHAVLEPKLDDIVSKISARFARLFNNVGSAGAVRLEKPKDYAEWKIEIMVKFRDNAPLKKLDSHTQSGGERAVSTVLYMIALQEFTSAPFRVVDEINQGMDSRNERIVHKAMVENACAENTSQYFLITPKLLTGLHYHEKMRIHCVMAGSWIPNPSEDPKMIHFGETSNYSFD
Description: co-IP.

“GST-Smc5-arm (from UniProt Q08204 302-369; Q08204 733-813) (domain or fragment)”: the dH in experiment [1] was -18.2 kcal/mol and -22 kcal/mol. The molecule also registered a Smc5 binding, percent of wild-type (% of wild-type) in experiment [2] of 84.

B1: Smc5 arm chimera (Asp302-Leu369, Gly-Ser-Gly-Ser linker, Lys733-Gln813), 6xHis-tagged (domain or fragment, budding yeast (S. cerevisiae))
chain: DKKPFANTKKTLENQVEELTEKCSLKTDEFLKAKEKINEIFEKLNTIRDEVIKKKNQNEYYRGRTKKLGSGSKREARKDVSQKIKDIDDQIQQLLLKQRHLLSKMASSMKSLKNCQKELISTQILQFEAQNMDVSMNDVIGFFNEREADLKSQ
Turning to B1, the binding result in experiment [3] was “binds”.

B2: mms21-M1-3HA (natural protein, budding yeast (S. cerevisiae))
chain: T1 sequence (looked up) with P9A, V12A, L14A, H15A
With B2, the “Smc5 binding, percent of wild-type” value in experiment [4] is 5 % of wild-type.

B3: mms21-M3-3HA (natural protein, budding yeast (S. cerevisiae))
chain: T1 sequence (looked up) with I33A, Y34A, C37A
On to B3, for which, in experiment [4], the “Smc5 binding, percent of wild-type” value is 30 % of wild-type.

B4: mms21-M5-3HA (natural protein, budding yeast (S. cerevisiae))
chain: T1 sequence (looked up) with Y76A, E79A, S80A, F83A
B4: the “Smc5 binding, percent of wild-type” value in experiment [4] was 66 % of wild-type.
